B1: LINE1-full (parent)
chain: UACGUAGGUGGUUUUCCCCUGAUAGUGCUAAGGGGGCCUGGAAGUUUGGACUGGGCAGAGCUCAACACAGCGUGGCAAAGUGGCUGUGGCUAGACUGCCUCUCUGGAUUCCUCGUCACUCAGCAGGGCAUCUCUGAGAGAAAUGCC

The data set covers variants of B1. The experiment in a line: self-cleavage, relative activity (ratio to wild type); higher = more cleavage; in vitro, sequencing; the parent is a self-cleaving ribozyme.
With UACGUAGGUGGUUUUCCCCUGAUAGUGCUAAGGGGGCCUGGAAGUGUGGACUGGGCAGAGCUCAACACAGCGUGGCAAAGUGGCUGUGGCUAGACUGCCUCUCUGGAUUCCACGUCACUCAGCAGGGCAUCUCUGAGAGAAAUGCC [U46G U112A], the self-cleavage was 1.47.

On to UACGUAGGUGGUUUUCCCCUGAUAGUGCUAAGGGGGCCUGGAAGUUAGGACUGGGCAGAGCUCAGCACAGCGUGGCAAAGUGGCUGUGGCUAGACUGCCUCUCUGGAUUCCUCGUCACUCAGCAGGGCAUCUCUGAGAGAAAUGCC [U47A A65G], for which the self-cleavage is 0.07.

Consider UACGUAGGUGGUUUUCCCCUGAUAGUGCUAAGGGGGCCUGGAAGUUAGGACUGGGCAGAGCUCAACACAGCGUGGCAAAGUGGCUGUGGCUAGACUGCAUCUCUGGAUUCCUCGUCACUCAGCAGGGCAUCUCUGAGAGAAAUGCC [U47A C99A], for which the self-cleavage came out at 0.48.

Turning to UACGUAGGUGGUUUUCCCCUGAUAGUGCUAAGGGGGCCUGGAAGUUAGGACUGGGCAGAGCUCAACACAGCGUGGCAAAGUGGCUGUGGCUAGACUGCUUCUCUGGAUUCCUCGUCACUCAGCAGGGCAUCUCUGAGAGAAAUGCC [U47A C99U], the self-cleavage is 0.3.

In the case of UACGUAGGUGGUUUUCCCCUGAUAGUGCUAAGGGGGCCUGGAAGUUAGGACUGGGCAGAGCUCAACACAGCGUGGCAAAGUGGCUGUGGCUAGACUGCCUCUCUGGAUUCCUCGUCACUCAGCAGGGCAUCUCUGGGAGAAAUGCC [U47A A136G], the self-cleavage was 1.52.

Consider UACGUAGGUGGUUUUCCCCUGAUAGUGCUAAGGGGGCCUGGAAGUUAGGACUGGGCAGAGCUCGACACAGCGUGGCAAAGUGGCUGUGGCUAGACUGCCUCUCUGGAUUCCUCGUCACUCAGCAGGGCAUCUCUGAGAGAAAUGCC [U47A A64G], for which the self-cleavage was found to be 0.2.

For UACGUAGGUGGUUUUCCCCUGAUAGUGCUAAGGGGGCCUGGAAGUUAGGACUGGGCAGAGCUCAACACAGCGUGGCAAAGUGGCUGUGGCUAGACUGCCUCUCUGGAUUCCUCGUCGCUCAGCAGGGCAUCUCUGAGAGAAAUGCC [U47A A117G], the self-cleavage stood at 1.38.

On to UACGUAGGUGGUUUUCCCCUGAUAGUGCUAAGGGGGCCUGGAAGUUAGGACUGGGCAGAGCUCAACACAGCGUGGCAAAGUGGCUGUGGCUAGACUGCCUCUCUGGAUUCCUCGUCCCUCAGCAGGGCAUCUCUGAGAGAAAUGCC [U47A A117C], for which the self-cleavage stood at 1.32.

As to UACGUAGGUGGUUUUCCCCUGAUAGUGCUAAGGGGGCCUGGAAGUUAGGACUGGGCAGAGCUCAACACAGCGUGGCAAAGUGGCUGUGGCUAGACUGCCUCUCUGGAUUCCUCGUCUCUCAGCAGGGCAUCUCUGAGAGAAAUGCC [U47A A117U], the self-cleavage amounted to 1.25.

Turning to UACGUAGGUGGUUUUCCCCUGAUAGUGCUAAGGGGGCCUGGAAGUGUGGACUGGGCAGAGCUCAACACAGCGUGGCAAAGUGGCUGUGGCUAGACUGCCUCUCUGGAUUCCUCGCCACUCAGCAGGGCAUCUCUGAGAGAAAUGCC [U46G U115C], the self-cleavage was found to be 1.69.

As to UACGUAGGUGGUUUUCCCCUGAUAGUGCUAAGGGGGCCUGGAAGUUAGGACUGGGCAGAGCUCAACACAGCGUGGCAAAGUAGCUGUGGCUAGACUGCCUCUCUGGAUUCCUCGUCACUCAGCAGGGCAUCUCUGAGAGAAAUGCC [U47A G82A], the self-cleavage stood at 2.27.

With UACGUAGGUGGUUUUCCCCUGAUAGUGCUAAGGGGGCCUGGAAGUUAGGACUGGGCAGAGCUCAACACAGCGUGGCAAAGUGGCUGUGGCUAGACUGCCUCUCUGGGUUCCUCGUCACUCAGCAGGGCAUCUCUGAGAGAAAUGCC [U47A A107G], the self-cleavage came out at 0.95.

With UACGUAGGUGGUUUUCCCCUGAUAGUGCUAAGGGGGCCUGGAAGUGUGGACUGGGCAGAGCUCAACACAGCGUGGCAAAGUGGCUGUGGCCAGACUGCCUCUCUGGAUUCCUCGUCACUCAGCAGGGCAUCUCUGAGAGAAAUGCC [U46G U91C], the self-cleavage was 0.74.

As for UACGUAGGUGGUUUUCCCCUGAUAGUGCUAAGGGGGCCUGGAAGUUAGGACUGGGCAGAGCUCAACACAGCGUGGCAAAGUGGCUGUGGCUAGACUGCCUCUCUGGAUUCCUCGUCACUCAGCAGGGCAUCUCUGAGAGAGAUGCC [U47A A141G], the self-cleavage is 1.37.

Turning to UACGUAGGUGGUUUUCCCCUGAUAGUGCUAAGGGGGCCUGGAAGUGUGGACUGGGCAGAGCUCAACACAGCAUGGCAAAGUGGCUGUGGCUAGACUGCCUCUCUGGAUUCCUCGUCACUCAGCAGGGCAUCUCUGAGAGAAAUGCC [U46G G72A], the self-cleavage was determined as 1.07.

For UACGUAGGUGGUUUUCCCCUGAUAGUGCUAAGGGGGCCUGGAAGUUAGGACUGGGCGGAGCUCAACACAGCGUGGCAAAGUGGCUGUGGCUAGACUGCCUCUCUGGAUUCCUCGUCACUCAGCAGGGCAUCUCUGAGAGAAAUGCC [U47A A57G], the self-cleavage is 0.54.

On to UACGUAGGUGGUUUUCCCCUGAUAGUGCUAAGGGGGCCUGGAAGUGUGGACUGGGCAGAGCUCAACACAGCGUGGCAAAGUGGCUGUGGCUAGACUGCCUCUCUGGAUUCCUCGUCACUCAGCAGGGCAUCACUGAGAGAAAUGCC [U46G U132A], for which the self-cleavage worked out at 1.4.

Regarding UACGUAGGUGGUUUUCCCCUGAUAGUGCUAAGGGGGCCUGGAAGUUAGGACUGGGCAGAGCUCAACACAGCGUGGCAAAGUGGCUGUGGCUAGACUGCCUCUCUGGAUUCCUCGUCACUCAGCAGGGCAUCUCUGAGUGAAAUGCC [U47A A138U], the self-cleavage was 1.59.

Regarding UACGUAGGUGGUUUUCCCCUGAUAGUGCUAAGGGGGCCUGGAAGUUAGGUCUGGGCAGAGCUCAACACAGCGUGGCAAAGUGGCUGUGGCUAGACUGCCUCUCUGGAUUCCUCGUCACUCAGCAGGGCAUCUCUGAGAGAAAUGCC [U47A A50U], the self-cleavage was 0.87.

Turning to UACGUAGGUGGUUUUCCCCUGAUAGUGCUAAGGGGGCCUGGAAGUUAGGACUGGGCAGUGCUCAACACAGCGUGGCAAAGUGGCUGUGGCUAGACUGCCUCUCUGGAUUCCUCGUCACUCAGCAGGGCAUCUCUGAGAGAAAUGCC [U47A A59U], the self-cleavage amounted to 0.81.

UACGUAGGUGGUUUUCCCCUGAUAGUGCUAAGGGGGCCUGGAAGUUAGGACUGGGCAGAGCUCAACACAGCGUGGCAAAGUGGUUGUGGCUAGACUGCCUCUCUGGAUUCCUCGUCACUCAGCAGGGCAUCUCUGAGAGAAAUGCC [U47A C84U]: the self-cleavage amounted to 0.09.

For UACGUAGGUGGUUUUCCCCUGAUAGUGCUAAGGGGGCCUGGAAGUUAGGACUGGGCAGAGCUCAACACAGCGUGGCAAAGUGGAUGUGGCUAGACUGCCUCUCUGGAUUCCUCGUCACUCAGCAGGGCAUCUCUGAGAGAAAUGCC [U47A C84A], the self-cleavage was determined as 0.14.

As for UACGUAGGUGGUUUUCCCCUGAUAGUGCUAAGGGGGCCUGGAAGUGUGGACUGGGCAGAGCUCAACACAGCGUGGCAAAGUGGCUGUGGCUAGACUGCCUCUCUGGAUUCCUCGUCACUCAGCAGGGCAUCUCUGAGAGAAAUUCC [U46G G144U], the self-cleavage stood at 0.95.

UACGUAGGUGGUUUUCCCCUGAUAGUGCUAAGGGGGCCUGGAAGUUAGGACUGGGCAGAGCUCAACACAGCGUGGCAAAGUGGCUGUGGCUAGACUGCCUCUCUGGAUUCCUCGUCACUCAGCAGGGUAUCUCUGAGAGAAAUGCC [U47A C128U]: the self-cleavage amounted to 1.39.

As to UACGUAGGUGGUUUUCCCCUGAUAGUGCUAAGGGGGCCUGGAAGUUAGGACUAGGCAGAGCUCAACACAGCGUGGCAAAGUGGCUGUGGCUAGACUGCCUCUCUGGAUUCCUCGUCACUCAGCAGGGCAUCUCUGAGAGAAAUGCC [U47A G53A], the self-cleavage came to 1.23.

For UACGUAGGUGGUUUUCCCCUGAUAGUGCUAAGGGGGCCUGGAAGUUAGGACUGGGCAGAGCUCAACACAGCGUGGCGAAGUGGCUGUGGCUAGACUGCCUCUCUGGAUUCCUCGUCACUCAGCAGGGCAUCUCUGAGAGAAAUGCC [U47A A77G], the self-cleavage came to 2.01.

In the case of UACGUAGGUGGUUUUCCCCUGAUAGUGCUAAGGGGGCCUGGAAGUUAGGACUGGGCAGAGCUCAACUCAGCGUGGCAAAGUGGCUGUGGCUAGACUGCCUCUCUGGAUUCCUCGUCACUCAGCAGGGCAUCUCUGAGAGAAAUGCC [U47A A67U], the self-cleavage was determined as 0.12.

As for UACGUAGGUGGUUUUCCCCUGAUAGUGCUAAGGGGGCCUGGAAGUUAGGACUGGGCAGAGCUCAACACAGCGUGGCAAAGUGGCUGUGGCUAGGCUGCCUCUCUGGAUUCCUCGUCACUCAGCAGGGCAUCUCUGAGAGAAAUGCC [U47A A94G], the self-cleavage is 0.23.

In the case of UACGUAGGUGGUUUUCCCCUGAUAGUGCUAAGGGGGCCUGGAAGUUAGGACUGGGCAGAGCUCAACACAGCGUGGCAAAGUGGCUGUGGCUAGACUGCCUCUCUGGAUUCCUCGUCACUCAGCAGGGCAUCUCUGAGAGGAAUGCC [U47A A140G], the self-cleavage is 0.99.

As to UACGUAGGUGGUUUUCCCCUGAUAGUGCUAAGGGGGCCUGGAAGUGUGGACUGGGCAGAGCUCAACACAGCGGGGCAAAGUGGCUGUGGCUAGACUGCCUCUCUGGAUUCCUCGUCACUCAGCAGGGCAUCUCUGAGAGAAAUGCC [U46G U73G], the self-cleavage is 1.5.

UACGUAGGUGGUUUUCCCCUGAUAGUGCUAAGGGGGCCUGGAAGUUAGGACUGGGCAGAGCUCAACACAGCGUGGCAAAGUGGCUGUGGCUAGACUGCCUCUCUGGAUUCCUCGUCACUCAGCCGGGCAUCUCUGAGAGAAAUGCC [U47A A124C]: the self-cleavage is 1.18.

On to UACGUAGGUGGUUUUCCCCUGAUAGUGCUAAGGGGGCCUGGAAGUUAGGACUGGGCAGAGCUCAACACAGUGUGGCAAAGUGGCUGUGGCUAGACUGCCUCUCUGGAUUCCUCGUCACUCAGCAGGGCAUCUCUGAGAGAAAUGCC [U47A C71U], for which the self-cleavage is 0.9.

Consider UACGUAGGUGGUUUUCCCCUGAUAGUGCUAAGGGGGCCUGGAAGUUAGGACUGGGCAGAGCUCAACACAGCGUGGCAAAGUGGCUGUAGCUAGACUGCCUCUCUGGAUUCCUCGUCACUCAGCAGGGCAUCUCUGAGAGAAAUGCC [U47A G88A], for which the self-cleavage amounted to 0.01.

Regarding UACGUAGGUGGUUUUCCCCUGAUAGUGCUAAGGGGGCCUGGAAGUUAGGACUGGGCAGAGCUCAACACAGCGUGGCAAAGUGGCUGUGGCUAGACUGCCUCUCUGGAUUCCUCGUCAAUCAGCAGGGCAUCUCUGAGAGAAAUGCC [U47A C118A], the self-cleavage is 0.95.

On to UACGUAGGUGGUUUUCCCCUGAUAGUGCUAAGGGGGCCUGGAAGUUAGGACUGGGCAGAGCUCAACACGGCGUGGCAAAGUGGCUGUGGCUAGACUGCCUCUCUGGAUUCCUCGUCACUCAGCAGGGCAUCUCUGAGAGAAAUGCC [U47A A69G], for which the self-cleavage was determined as 0.52.

Consider UACGUAGGUGGUUUUCCCCUGAUAGUGCUAAGGGGGCCUGGAAGUUAGGACUGGGCAGAGCUCAACACAGCGUGGCAAAGUGGCUGUGGCUAGACUGCCUCUCUGGAUUCCUCGUCACUCCGCAGGGCAUCUCUGAGAGAAAUGCC [U47A A121C], for which the self-cleavage came out at 1.49.

UACGUAGGUGGUUUUCCCCUGAUAGUGCUAAGGGGGCCUGGAAGUUAGGACUGGGCAGAGAUCAACACAGCGUGGCAAAGUGGCUGUGGCUAGACUGCCUCUCUGGAUUCCUCGUCACUCAGCAGGGCAUCUCUGAGAGAAAUGCC [U47A C61A]: the self-cleavage was 0.03.

Turning to UACGUAGGUGGUUUUCCCCUGAUAGUGCUAAGGGGGCCUGGAAGUUAGGACUGGGUAGAGCUCAACACAGCGUGGCAAAGUGGCUGUGGCUAGACUGCCUCUCUGGAUUCCUCGUCACUCAGCAGGGCAUCUCUGAGAGAAAUGCC [U47A C56U], the self-cleavage amounted to 0.14.

Turning to UACGUAGGUGGUUUUCCCCUGAUAGUGCUAAGGGGGCCUGGAAGUUAGGACUGGGCAGAGCUCAACACAGCGUGGCAAAGUGGCUGUGGCUAGACUGCCUCUCUGGAUUCCUCGUCACUAAGCAGGGCAUCUCUGAGAGAAAUGCC [U47A C120A], the self-cleavage was 1.36.

(Values after the RNAGym collection of RNA variant scans (doi:10.7554/elife.90254).)
